Test results: the RNAGym collection of RNA variant scans (doi:10.7554/elife.80360)

B1: Hairpin Ribozyme (parent)
chain: GUCCUCUUUCACGUGCGCGUGAAAGAGAGAAGUGAACCAGAGAAACACACGUUGUGGUAUAUUACCUGGUA

Variants of: B1
Assay: self-cleavage, relative activity (ratio to wild type); higher = more cleavage; co-transcriptional

Question: Which self-cleavage does the source give for GUCCUCUUUCACCUGCGCGUGAAAGAGAGAAGUGAACCAGAGAAACACACGUUGUGGUAUACUACCUGGUA [G13C U62C] here?
Answer: 0.147

Question: With GUCCUCUUUCACGUGCGUGUGAAAGAGAGAAGUGAACCAGAGAAACGCACGUUGUGGUAUAUUACCUGGUA [C18U A47G] as the variant, how does the self-cleavage read?
Answer: 0.15

Question: Which self-cleavage does the source give for GUCCUCUUUCACUUGCGCGUGAAAAAGAGAAGUGAACCAGAGAAACACACGUUGUGGUAUAUUACCUGGUA [G13U G25A] here?
Answer: 0.559

Question: For GUCCUCUUUCACGUGCGCGUGAAAGAGACAAGUGAACCAGAGAAACACACGUUGUGAUAUAUUACCUGGUA [G29C G57A], which self-cleavage is on record?
Answer: 0.215

Question: Which self-cleavage does the source give for GUCCUCCUUCACGUGCGCGUAAAAGAGAGAAGUGAACCAGAGAAACACACGUUGUGGUAUAUUACCUGGUA [U7C G21A] here?
Answer: 0.618

Question: For GUCAUCUUUCACGUGCGCGUAAAAGAGAGAAGUGAACCAGAGAAACACACGUUGUGGUAUAUUACCUGGUA [C4A G21A], which self-cleavage is on record?
Answer: 0.165

Question: For GACCUCUUUCACGUGCGCGUGAAAGAGAGAAGUGAACCAGAGAAACACAUGUUGUGGUAUAUUACCUGGUA [U2A C50U], which self-cleavage is on record?
Answer: 0.113

Question: For GUCCUCUUUCACGUGCGCGUGAUAGAGAGAAGUGAACCAGUGAAACACACGUUGUGGUAUAUUACCUGGUA [A23U A41U], which self-cleavage is on record?
Answer: 1.07

Question: For GUCCUCUUUCACGUGCGCGUGAAAGAGAGAAGUGACCCAGAGAAACACACGUUGUGGUAUAUUACCUGGCA [A36C U70C], which self-cleavage is on record?
Answer: 0.607

Question: For GUCCUCUUUCACAUGCGCGUGAAAGAGAGAAGUGAGCCAGAGAAACACACGUUGUGGUAUAUUACCUGGUA [G13A A36G], which self-cleavage is on record?
Answer: 0.873

Question: With GUCCUCUUUCACGUGCGCGUGAAAGAGAGAAGUGAACCAGAGAAACACGCGUUGUGGUAUAUUACCUGCUA [A49G G69C] as the variant, how does the self-cleavage read?
Answer: 0.186

Question: For GUCCUCUUUCACGUGCGCGUGAAAGAGAGAAGAGAACCAGACAAACACACGUUGUGGUAUAUUACCUGGUA [U33A G42C], which self-cleavage is on record?
Answer: 0.14

Question: With GUCCUCUUUCACGUGCGGGUGAAAGAGAGAAGUGAACUAGAGAAACACACGUUGUGGUAUAUUACCUGGUA [C18G C38U] as the variant, how does the self-cleavage read?
Answer: 0.44

Question: Which self-cleavage does the source give for GUCCUCUAUCACGUGCGCGUGAAAGAGAGAAGUGAACCAGACAAACACACGUUGUGGUAUAUUACCUGGUA [U8A G42C] here?
Answer: 0.147

Question: With GUCCUCUUUCACGUGCACGUGAAAGAGAGAAUUGAACCAGAGAAACACACGUUGUGGUAUAUUACCUGGUA [G17A G32U] as the variant, how does the self-cleavage read?
Answer: 0.123

Question: For GUCCUCUUUCACGUGCGCGUGAAGGAGAGAAGUGAACCAGAGAAACACACGUUGUGGUAUAUUACGUGGUA [A24G C66G], which self-cleavage is on record?
Answer: 0.226

Question: With GUCCUCUUUCACGUGCGCGUGAAAGAGAGAAGUGAAUCAGAGAAACACUCGUUGUGGUAUAUUACCUGGUA [C37U A49U] as the variant, how does the self-cleavage read?
Answer: 0.211

Question: Which self-cleavage does the source give for GUCCUCUUUCACGUGCGCGUGAAAGAGAGAAGUGAACCAAAGAAAGACACGUUGUGGUAUAUUACCUGGUA [G40A C46G] here?
Answer: 0.136

Question: With GUCCUCUUUCACGUGCGCGUGAAAGAGAGAAGUGAACCAGAGAAACACGCGUUGUGGUAUAUUACCGGGUA [A49G U67G] as the variant, how does the self-cleavage read?
Answer: 0.195

Question: For GUCCUCUUUCACGUGCGCCGGAAAGAGAGAAGUGAACCAGAGAAACACACGUUGUGGUAUAUUACCUGGUA [G19C U20G], which self-cleavage is on record?
Answer: 1.05

Question: With GUCCUCUGUCACGUGCGCGUGAAAGAGUGAAGUGAACCAGAGAAACACACGUUGUGGUAUAUUACCUGGUA [U8G A28U] as the variant, how does the self-cleavage read?
Answer: 0.514

Question: With GUCCUCUUUCACGUGCGCGUGAGAGAGAGAAGUGAACCAGAGAACCACACGUUGUGGUAUAUUACCUGGUA [A23G A45C] as the variant, how does the self-cleavage read?
Answer: 0.0971

Question: With GUCCUCUUUCACGUGCGCGUGAAAGAGAGAAGUGAACUAGAGAAACACACUUUGUGGUAUAUUACCUGGUA [C38U G51U] as the variant, how does the self-cleavage read?
Answer: 0.774

Question: For GUCCUCUUUCACGUGCGCGUGAAAGAGAGAAGUGAACCAGAGAAUCACACGUAGUGGUAUAUUACCUGGUA [A45U U53A], which self-cleavage is on record?
Answer: 0.151

Question: For GUCCUCUUUCACGUGCGCGUGAAAGAGAGAAGUGAACCAGAGAAACACACCUUGCGGUAUAUUACCUGGUA [G51C U55C], which self-cleavage is on record?
Answer: 0.306

Question: Which self-cleavage does the source give for GUCCUCUUUCACGUGCGCGUGAAAGUGAGAAGUGAUCCAGAGAAACACACGUUGUGGUAUAUUACCUGGUA [A26U A36U] here?
Answer: 0.414

Question: With GGCCUCUUUCACGUGCGCGUGAAAGAGAGAAGUGAACCAGAGAAACACACGUUGUGGUAUGUUACCUGGUA [U2G A61G] as the variant, how does the self-cleavage read?
Answer: 0.15

Question: With GUCCUCUUUCACGUGCGCGUGAAAGAGAGAAGUGAUCCAGAGAAACACACGUUGUGGUAUAUUACCGGGUA [A36U U67G] as the variant, how does the self-cleavage read?
Answer: 0.177

Question: With GUCCUCUUUAACGUGCGCGUGAAAGAGAGAAGUGAACCAGAGAAACACACGUUGUGGUAUCUUACCUGGUA [C10A A61C] as the variant, how does the self-cleavage read?
Answer: 0.18

Question: For GUCCUCUUUCACGUGCGGGUGAAAGAGAGAACUGAACCAGAGAAACACACGUUGUGGUAUAUUACCUGGUA [C18G G32C], which self-cleavage is on record?
Answer: 0.0857

Question: With GGACUCUUUCACGUGCGCGUGAAAGAGAGAAGUGAACCAGAGAAACACACGUUGUGGUAUAUUACCUGGUA [U2G C3A] as the variant, how does the self-cleavage read?
Answer: 0.786

Question: For GUCCUCUUUCACGUGCGCGUGAAAGAGAGAAGUAAACCAGAGAAACACACGUUGUGGUAUAUUGCCUGGUA [G34A A64G], which self-cleavage is on record?
Answer: 0.625

Question: Which self-cleavage does the source give for GUCCUCUUUCACGUGCGCGUGAAAGAGAGAAGCGAACCAGAGAAUCACACGUUGUGGUAUAUUACCUGGUA [U33C A45U] here?
Answer: 0.15

Question: With GUCCUCUUUCACAUGCGCGUGAAAGAGAGAAGUGAAUCAGAGAAACACACGUUGUGGUAUAUUACCUGGUA [G13A C37U] as the variant, how does the self-cleavage read?
Answer: 0.637

Question: Which self-cleavage does the source give for GUCCUCUUUCACGUGCGCGUGAAAGAGAGAAGGGAAGCAGAGAAACACACGUUGUGGUAUAUUACCUGGUA [U33G C37G] here?
Answer: 0.064

Question: With GUCCUCUUUGACGUGCGCGUGAAAGAGAGAAGUGAACCAGAGAAACACACGUUGUGGUAUUUUACCUGGUA [C10G A61U] as the variant, how does the self-cleavage read?
Answer: 0.2

Question: For GUCCUCUUUCACGUGCGCGUGAAAGUGAGAAGUGAACCAGAGAAACACACGUUGGGGUAUAUUACCUGGUA [A26U U55G], which self-cleavage is on record?
Answer: 0.281

Question: With GUCCUCUUUCACGUGCGCGUGAAAGAGAGAAGCGAACCAGAGACACACACGUUGUGGUAUAUUACCUGGUA [U33C A44C] as the variant, how does the self-cleavage read?
Answer: 0.226
